{"source": "patent US20090317412A1", "about": "“Induction of an immune response against streptococcus pneumoniae polyaccharides” (priority 2004, published 2009)", "origin": "cited, not measured here", "biological_target": "T1, murine I-A^b molecules (Mus musculus, UniProt P14434+P14483)", "T1 sequence (P14434 24-256)": "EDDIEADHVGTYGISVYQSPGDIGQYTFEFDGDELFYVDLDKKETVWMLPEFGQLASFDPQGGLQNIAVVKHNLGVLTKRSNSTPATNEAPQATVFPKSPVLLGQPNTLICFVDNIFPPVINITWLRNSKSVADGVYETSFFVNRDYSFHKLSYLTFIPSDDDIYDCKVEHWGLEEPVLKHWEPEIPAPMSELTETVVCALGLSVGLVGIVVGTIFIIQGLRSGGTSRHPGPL", "T1 sequence (P14483 28-265)": "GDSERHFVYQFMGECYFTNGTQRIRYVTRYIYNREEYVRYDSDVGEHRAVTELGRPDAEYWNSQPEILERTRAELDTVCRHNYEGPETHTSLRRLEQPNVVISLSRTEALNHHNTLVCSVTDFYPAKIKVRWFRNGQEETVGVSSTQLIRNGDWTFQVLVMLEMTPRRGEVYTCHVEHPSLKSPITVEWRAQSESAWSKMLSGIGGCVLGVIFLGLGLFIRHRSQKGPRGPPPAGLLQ"}
{"sequence": "AKXVAAWTLKAAA [pan DR binding peptide]", "values": [{"measurement": "binding to murine I-A^b molecules", "result": "binds"}]}
